The source of these data is patent publication US20260275319A1, “ARCHAEAL PEPTIDE RECOMBINASE – A NOVEL PEPTIDE LIGATING ENZYME” (MAX-PLANCK-GESELLSCHAFT ZUR FÖRDERUNG DER WISSENSCHAFTEN …, priority 2019, published 2026).

The test system of data set [1] is Ub-(5)KDPGA(15)-Strep and PGA(10). The experiment in a line: Test for hydrolase activity with protein substrate.
Procedure: To investigate, whether this characteristic also holds true with protein substrates, the above experiment was repeated with Ub-(5)KDPGA(15)-Strep substrate (SEQ ID NO: 522). Specifically, 25 μM Ub-(5)KDPGA(15)-Strep and 25 μM PGA(10)(SEQ ID NO: 454) were incubated with either 25 nM or 25 μM M. mazei Adriase (SEQ ID NO: 380) in optimized buffer (50 mM acetic acid, 50 mM MES, 50 mM HEPES, 100 mM NaCl, 50 mM KCl, 5 mM TCEP, pH 7.0) at 50° C. After 140 s, 320 s, 575 s, 1002 s, 30 min or 90 min, aliquots were removed and mixed with 2% SDS to stop the reaction.
Data set [2] concerns (5)KDPGA(10F) and PGA(10) substrates. The experiment in a line: M. mazei Adriase peptide-peptide ligation time courses and Michaelis-Menten plot. Type of data set: biochemical. As to conditions: 50° C. An excerpt: The band intensity of the respective fluorescently labeled PGA(10F) peptides (SEQ ID NO: 455), which were released by the ligation reactions were quantified using ImageJ v1.50i and subtracted from background signal in control reactions without PGA(10) peptides.

The subject of data set [3] is Ub-(5)KDPGA(15) and PGA(15)-Ub. The experiment in a line: Comparison with Sortase: Adriase-catalyzed protein-protein ligation.
Procedure: (§1) (SEQ ID NO: 536) and GGG-Ub (SEQ ID NO: 666) were recorded. The Adriase assays were conducted with 3.13 μM and 100 μM substrate concentration and 0.0025 molar equivalents Adriase (SEQ ID NO: 380) in reaction buffer (50 mM acetic acid, 50 mM MES, 50 mM HEPES, 100 mM NaCl, 50 mM KCl, 5 mM TCEP, pH 7.0) at 50° C. The SrtA5* and SrtA assays were conducted with 3.13 μM and 100 μM substrate concentration and either 1 or 0.1 molar equivalents SrtA5* or SrtA (SEQ ID NO: 535 and 662) in Sortase buffer (50 mM Tris-HCl pH 7.5, 150 mM NaCl, 10 mM CaCl2) at 37° C. At various time points (0 s, 28 s, 55 s, 88 s, 126 s, 171 s, 225 s, 295 s, 393 s, 554 s, 1125 s, 1670 s and 2250 s), an aliquot of the reaction was mixed with 2% SDS. Samples were then separated on 12% polyacrylamide gels (Thermo) and stained with Coomassie blue. The band intensities of educt and product bands were quantified using ImageJ v1.52a, assuming that all ubiquitin molecules bind the coomassie dye in a similar manner. The results were used to plot the time courses for each experiment.
The subject of data set [4] is Ub-(5)KDPGA(10) and PGA(10)-sdAb/CyP/GST. The experiment in a line: Ligation of unrelated protein substrates (sdAb, CyP, GST). Type of data set: biochemical, M. mazei. As to conditions: 0.9 μM enzyme, 3.7 μM substrates, 37° C., 10 min.
The test system of data set [5] is Ub-(5)KDPGA(15) and PGA(15)-Ub substrates. The experiment in a line: M. mazei Adriase protein-protein ligation kinetics.
Procedure: Specifically, different concentrations (0.39 μM, 0.78 μM, 1.56 μM, 3.13 μM, 6.25 μM, 12.5, 25, 50 or 100 μM; three independent experiments per concentration) of Ub-(5)KDPGA(15)(SEQ ID NO: 520) and PGA(15)-Ub (SEQ ID NO: 521) substrates were incubated with 0.0025 molar equivalents of M. mazei Adriase (SEQ ID NO: 380) in reaction buffer (50 mM acetic acid, 50 mM MES, 50 mM HEPES, 100 mM NaCl, 50 mM KCl, 5 mM TCEP, pH 7.0) at 50° C. At various time points (0 s, 28 s, 55 s, 88 s, 126 s, 171 s, 225 s, 295 s, 393 s, 554 s, 1125 s, 1670 s and 2250 s), an aliquot of the reaction was mixed with 2% SDS. Samples were then separated on 12% polyacrylamide gels (Thermo) and stained with Coomassie blue (FIG. 21A). The band intensities of educt and product bands were quantified using ImageJ v1.52a, assuming that all ubiquitin molecules bind the coomassie dye in a similar manner. The results were used to plot the time courses for each experiment (FIG. 21B).
the data fit for each time course allowed the determination of the maximum rate parameter for each concentration. These maximum rates were then used in a Michaelis-Menten plot (FIG. 21C) to approximate kinetic measures.
The test system of data set [6] is (15)KDPGA(10) and PGA(10F) substrates. Particulars: 100 nM enzyme, 15 μM substrates, 8 min, 85° C. (M. jannaschii variants) or 50° C. (M. mazei).
Procedure: In a second set of experiments, the ligase activity of Adriase variants was tested with (15)KDPGA(10)(SEQ ID NO: 419) and PGA(10F)(SEQ ID NO:414) substrates. […] Furthermore, M. mazei Adriase (SEQ ID NO: 380) was tested for ligase activity with the same M. jannaschii peptide substrates to assess whether variety within the recognition motif is tolerated. The read out for Adriase activity was the detection of fluorescently labeled ligation product (10)KDPGA(10F)(SEQ ID NO: 418).
The reaction was performed in optimized M. jannaschii Adriase buffer (20 mM MES-NaOH pH 5.8, 150 mM NaCl, 100 mM KCl, 5 mM TCEP-HCl) for 8 min at 85° C. when M. jannaschii derived Adriase variants were used and at 50° C. in optimized M. mazei Adriase buffer (50 mM acetic acid, 50 mM MES, 50 mM HEPES, 100 mM NaCl, 50 mM KCl, 5 mM TCEP, pH 7.0) when M. mazei Adriase was used and stopped by addition of 2% SDS. Samples were then separated on 12% polyacrylamide gels (Thermo) and fluorescent products visualized by UV light.
For data set [7], the target named is M. jannaschii MtrA^Δ194-245 (Methanocaldococcus jannaschii, UniProt Q58261). Particulars: 1:1 molar mixture, 200 μM, Superdex S200, light scattering.
Sequence of M. jannaschii MtrA^Δ194-245 (Q58261 1-189, stated change not applied): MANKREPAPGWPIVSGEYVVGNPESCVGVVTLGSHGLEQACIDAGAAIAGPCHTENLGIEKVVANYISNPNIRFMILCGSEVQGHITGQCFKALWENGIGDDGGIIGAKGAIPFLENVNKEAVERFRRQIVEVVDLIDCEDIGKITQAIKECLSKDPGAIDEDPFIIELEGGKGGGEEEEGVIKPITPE
Procedure: Data analysis was carried out with ASTRA v7.3.0.18 software (Wyatt).
For this purpose, size exclusion chromatography using 50 μl 200 μM M. jannaschii Adriase^ΔOB (SEQ ID NO: 132), M. jannaschii MtrA^Δ194-245 (SEQ ID NO:420) or a 1:1 molar mixture of the Adriase-MtrA pair was analyzed using a Superdex S200 10/300 GL gel size-exclusion column (20 mM HEPES-NaOH pH 7.5, 50 mM NaCl, 100 mM KCl) coupled to a miniDAWN Tristar Laser photometer (Wyatt).
To investigate, whether the OB fold alone is sufficient to bind Adriase in the above experimental set-up, we repeated the same analysis using M. jannaschii Adriase^ΔNTN (SEQ ID NO: 519). Specifically, size exclusion chromatography using 50 μl 200 μM M. jannaschii Adriase^ΔNTN (SEQ ID NO: 519), M. jannaschii MtrA^Δ194-245 (SEQ ID NO:420) or a 1:1 molar mixture of the Adriase-MtrA pair was analyzed using a Superdex S200 10/300 GL gel size-exclusion column (20 mM HEPES-NaOH pH 7.5, 50 mM NaCl, 100 mM KCl) coupled to a miniDAWN Tristar Laser photometer (Wyatt).
In data set [8] the test system is (15)KDPGA(10) and PGA(10F) substrates. As to conditions: FIG. 14.
Procedure: Specifically, 15 μM of (15)KDPGA(10)(SEQ ID NO: 419) and 15 μM of fluorophore-coupled PGA(10F)(SEQ ID NO: 374) substrates were incubated optimized M. jannaschii Adriase buffer (20 mM MES-NaOH pH 5.8, 150 mM NaCl, 100 mM KCl, 5 mM TCEP-HCl) for 8 min at 80° C. with either various Adriase concentrations. The assay was performed with either 7 nM, 21 nM, 62 nM, 185 nM, 556 nM, 1666 nM, 5000 nM or 15000 nM N-terminally modified Adriase (N-His, SEQ ID NO: 450) or 0 nM, 7 nM, 21 nM or 62 nM unmodified Adriase (SEQ ID NO: 385) and stopped by addition of 2% SDS. Samples were then separated on 12% polyacrylamide gels (Thermo) and fluorescent products visualized by UV light.
Data set [9] relates to LPETG (primary) and GGG (secondary) substrates. As to conditions: cited from earlier work.
Data set [10] concerns Ub-GGSLPETGGGHHHHHH and GGG-Ub. The experiment in a line: Comparison with Sortase: SrtA / SrtA5* catalyzed protein-protein ligation. As to conditions: 3.13 μM each substrate, enzyme:substrate ratio 1:1, 37° C.
Procedure: as §1
For data set [11], the target named is LPETG (primary) and GGG (secondary) substrates (Staphylococcus aureus, UniProt Q2FV99). As to conditions: Frankel (2005); cited from earlier work.
Sequence of LPETG (primary) and GGG (secondary) substrates (Staphylococcus aureus, UniProt Q2FV99) (Q2FV99 60-206): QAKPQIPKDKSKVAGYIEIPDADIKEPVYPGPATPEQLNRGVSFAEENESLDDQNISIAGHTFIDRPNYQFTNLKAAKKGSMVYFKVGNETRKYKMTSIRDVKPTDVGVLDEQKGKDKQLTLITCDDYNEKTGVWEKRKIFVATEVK

By Km is commonly meant the concentration of substrate that gives half-maximal velocity.

Changes are numbered by the printed parent chain. Names may count otherwise. “And” between values parts separate entries of the source, which are not always exact repeats. Identical values can stand only once. Like-named read-outs stand apart in the source and are kept apart here.

B1: M. mazei Adriase: Methanosarcina mazei Adriase (MM_2909), archaeal peptide recombinase, C-terminal His6-tag; Strep-, Myc-, HA-tagged versions used as pulldown bait (protein)
chain: TLVIAFIGKNGAVMAGDMREITFEGEKPDREKLEKELYSGSIVTDEEMQKKAEEFGVKITVADCKEKVSERNGVLVGEVSSAEGGVVKKRRLYASAGNFAIAELINTEMTLTSQGKGSNFIAFGNEFTKQVANKCFKDNWTKKSNLQDAVKILILCMETVARKTASVSKQFMIVQTASNADVLKVVEKDRNCGSHHHHHH
modifications: C-terminal His6-tag; M. mazei Adriase with C-terminal His-tag
notes: Methanosarcina mazei Adriase (MM_2909), archaeal peptide recombinase, C-terminal His6-tag; Strep-, Myc-, HA-tagged versions used as pulldown bait
In the case of B1, in [1] (enzyme:substrate 1:1000 (1×), 30 minutes), the product formation is ~ 50%. For the same molecule, in data set [1] (prolonged incubation (90 min), 1000× increased Adriase concentration), the “amount of ligation product” value was ~ 50%. In addition, the maximum rate in data set [2] (0.001 molar equivalents enzyme, pH 7.0, Michaelis-Menten model) was ~ 2.25 ligations per enzyme and second; in [5] (protein-protein ligation, 0.0025 molar equivalents enzyme, 50° C., pH 7.0), 0.92 ligations per enzyme and second. In addition, the “substrate concentration at half maximal reaction speed” value in data set [2] (each substrate, pH 7.0) is given as ~ 9 μM. The “substrates ligated (on a molar basis)” value in data set [3] (3.13 μM each substrate, enzyme:substrate ratio 1:400) is listed as ~ 50%. Further, in [3] (100 μM substrates), the “yield compared to Sortase” value is ~ 1.7 ×. In data set [3] (100 μM substrates, Adriase 0.0025 molar equivalents, 50° C., SrtA5* 37° C.), the “ligase activity / ligation rate compared to SrtA5*” value was ~ 40 × and > 40 ×. The “ligase activity / ligation rate compared to SrtA” value in data set [3] (100 μM substrates, Adriase 0.0025 molar equivalents, 50° C., SrtA 37° C.) was ~ 4000 × and > 4000 ×. Also, the ligation yield in data set [3] (compared to ~30% in the Sortase reactions) was ~ 50%. Besides, the “ligation of protein pairs” value in data set [4] is on record as “efficiently ligates all three protein pairs”. Besides, the ligation rate coefficient in data set [5] (25 μM substrate concentration) was 0.74 ± 0.05 s⁻¹; in data set [5] (50 μM substrate concentration), 0.88 ± 0.07 s⁻¹; in data set [5] (100 μM substrate concentration), 0.90 ± 0.14 s⁻¹. For the same molecule, in [5] (each substrate, equimolar, protein-protein ligation, 50° C., pH 7.0), the “substrate concentration at half-maximum rate” value worked out at 2.2 µM. In addition, in [6], the “ligase activity (fluorescent ligation product)” value was “showed activity”.

B2: Adriase^ΔOB S1A (protein)
chain: ALIICYYGKNGAVIGGDRRQIFFRGSEENRKILEEKLYSGEIKSEEELYKLAEKLNIKIIIEDDREKVRKISDSVVCGEVRSLGIDAKRRRVYATKGKCAIVDILNDTVTNQTIKEGFGIVVLGNRFLKKKAEEELKRTAKLFPMMPIQQIEDAIKEIFEKLKWHPTVSKEYDIYSVNKYEKNFEEVIKKDIESLFKYREQGSHHHHHH
For B2, the “complex formation with MtrA” value in data set [7] is recorded as “decreased affinity”.

B3: Adriase^ΔOB: M. jannaschii Adriase without OB-like domain (Δ203-293), C-terminal His6-tag (protein)
chain: B2 chain with A1S
modifications: C-terminal His6-tag; M. jannaschii Adriase without OB, with C-terminal His-tag
With B3, the “ligase activity (fluorescent ligation product)” value in data set [6] is listed as “still catalytically active”.

B4: M. jannaschii Adriase: Methanocaldococcus jannaschii Adriase (MJ_0548) with C-terminal His6-tag (protein)
chain: SLIICYYGKNGAVIGGDRRQIFFRGSEENRKILEEKLYSGEIKSEEELYKLAEKLNIKIIIEDDREKVRKISDSVVCGEVRSLGIDAKRRRVYATKGKCAIVDILNDTVTNQTIKEGFGIVVLGNRFLKKKAEEELKRTAKLFPMMPIQQIEDAIKEIFEKLKWHPTVSKEYDIYSVNKYEKNFEEVIKKDIESLFKYREQLRKQLIDFGKVMSIVNKIVKNGEIGVIKDGKLHLYDDYIAIDKIDPNPKVFKVVDVEGNFKDGDIVVIENGDMKIKGTNEKVTTKYIIIHKGSHHHHHH
modifications: C-terminal His6-tag; M. jannaschii Adriase with C-terminal His-tag
For the molecule B4, the “rate of product generation compared to N-terminally modified Adriase” value in data set [8] is on record as ~ 200 ×.

B5: M. jannaschii Adriase^S1A (protein)
chain: B4 chain with S1A
modifications: C-terminal His-tag; M. jannaschii Adriase S1A mutant with C-terminal His-tag
In the case of B5, in data set [7], the “complex formation with MtrA” value is reported as “form a heterodimer”. Besides, the “ligase activity (fluorescent ligation product)” value in [6] was “no ligation product is observed”.

B6: M. jannaschii Adriase^ΔNTN (protein, listed as Methanosarcina mazei)
chain: MEQLRKQLIDFGKVMSIVNKIVKNGEIGVIKDGKLHLYDDYIAIDKIDPNPKVFKVVDVEGNFKDGDIVVIENGDMKIKGTNEKVTTKYIIIHKGSHHHHHH
modifications: Methanosarcina mazei Go1; Adriase NTN with C-terminal His-tag
Regarding B6, the “complex formation with MtrA” value in data set [7] is given as “no complex is formed”.

B7: SrtA5* (protein, listed as Staphylococcus aureus)
chain: MQAKPQIPKDKSKVAGYIEIPDADIKEPVYPGPATREQLNRGVSFAEENESLDDQNISIAGHTFIDRPNYQFTNLKAAKKGSMVYFKVGNETRKYKMTSIRNVKPTAVEVLDEQKGKDKQLTLITCDDYNEETGVWETRKIFVATEVKLEHHHHHH
modifications: C-terminal His-tag; SrtA5* delta 1-59 with C-terminal His-tag
B7: the “increased rates compared to the wild type enzyme” value in data set [9] (Chen (2011)) is on record as “up to 120 ×”. In addition, the Michaelis-Menten constant (Km) in data set [9] (Chen (2011), read-out: KM GGG) is 4700 µM; in [9] (Chen (2011), read-out: KM LPETG), 170 µM. Besides, the “ligase activity at low substrate concentrations” value in data set [10] is given as “only spurious ligase activity”.

B8: SrtA: Staphylococcus aureus Sortase A without N-terminal membrane anchor (residues 1-59), N-terminal His6-tag (protein, listed as Staphylococcus aureus)
chain: MRGSHHHHHHGSQAKPQIPKDKSKVAGYIEIPDADIKEPVYPGPATPEQLNRGVSFAEENESLDDQNISIAGHTFIDRPNYQFTNLKAAKKGSMVYFKVGNETRKYKMTSIRDVKPTDVEVLDEQKGKDKQLTLITCDDYNEKTGVWEKRKIFVATEVK
modifications: N-terminal His6-tag; His6-SrtA 1-59
notes: Staphylococcus aureus Sortase A without N-terminal membrane anchor (residues 1-59), N-terminal His6-tag
Regarding B8, the “Kcat Ligation/Kcat Hydrolysis” value in [11] was “≈ 3.3”. For the same molecule, the Km was 196 µM in [9] (primary substrate used in excess, read-out: KM for the secondary substrate) and 7330 µM in data set [9] (secondary substrate used in excess, read-out: KM for the primary substrate). Also, in data set [10], the “ligase activity at low substrate concentrations” value was “only spurious ligase activity”.

B9: 428-57: M. jannaschii Adriase without the insertion element that distinguishes Adriase from proteasome subunits, C-terminal His6 (protein)
chain: SLIICYYGKNGAVIGGDRRQIFFRGSGKIIIEDDREKVRKISDSVVCGEVRSLGIDAKRRRVYATKGKCAIVDILNDTVTNQTIKEGFGIVVLGNRFLKKKAEEELKRTAKLFPMMPIQQIEDAIKEIFEKLKWHPTVSKEYDIYSVNKYEKNFEEVIKKDIESLFKYREQLRKQLIDFGKVMSIVNKIVKNGEIGVIKDGKLHLYDDYIAIDKIDPNPKVFKVVDVEGNFKDGDIVVIENGDMKIKGTNEKVTTKYIIIHKGSHHHHHH
modifications: C-terminal His6; M. jannaschii Adriase 28-57, C-terminal His6
Take B9: the “ligase activity (fluorescent ligation product)” value in data set [6] is “abolishes ligase activity”.
